{"source": "paper PMC4993455", "key": {"[1]": {"target": "recombinant human methionine adenosyltransferase α2 (MATα2) (human) (UniProt P31153)", "sequence (P31153 whole entry)": "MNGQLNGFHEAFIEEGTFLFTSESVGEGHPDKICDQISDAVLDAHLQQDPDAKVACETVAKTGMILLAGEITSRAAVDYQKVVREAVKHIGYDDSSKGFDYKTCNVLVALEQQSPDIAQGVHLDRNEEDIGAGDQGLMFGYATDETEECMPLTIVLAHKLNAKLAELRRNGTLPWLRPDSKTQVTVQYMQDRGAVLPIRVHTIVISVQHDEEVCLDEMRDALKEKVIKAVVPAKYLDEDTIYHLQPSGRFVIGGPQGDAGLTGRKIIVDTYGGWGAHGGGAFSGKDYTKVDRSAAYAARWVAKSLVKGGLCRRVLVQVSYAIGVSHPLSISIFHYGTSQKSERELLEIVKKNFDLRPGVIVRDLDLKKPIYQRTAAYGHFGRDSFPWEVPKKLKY"}, "[2]": {"target": "recombinant methionine adenosyltransferase α1 (MATα1) (rat) (UniProt P13444)", "sequence (P13444 whole entry)": "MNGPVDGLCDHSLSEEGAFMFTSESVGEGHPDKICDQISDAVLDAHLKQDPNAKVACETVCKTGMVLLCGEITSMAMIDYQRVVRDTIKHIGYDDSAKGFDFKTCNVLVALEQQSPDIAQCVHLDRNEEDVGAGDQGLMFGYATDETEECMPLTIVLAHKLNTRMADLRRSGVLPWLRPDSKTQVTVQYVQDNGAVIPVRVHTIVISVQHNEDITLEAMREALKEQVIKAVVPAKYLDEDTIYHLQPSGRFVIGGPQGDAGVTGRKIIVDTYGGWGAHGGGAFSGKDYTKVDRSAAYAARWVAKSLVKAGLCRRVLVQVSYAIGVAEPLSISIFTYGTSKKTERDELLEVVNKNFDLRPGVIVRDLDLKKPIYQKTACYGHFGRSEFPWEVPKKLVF"}}, "data": [{"substance": "recombinant PDRG1 (tag excised) (from UniProt Q642A0 1-133) (natural protein)", "values": [{"measurement": "IC50 of PDRG1 on S-adenosylmethionine synthesis by purified recombinant MATα2 homo-oligomers (0.7 μM)", "setting": "[1]", "value": 3.79, "unit": "µM"}, {"measurement": "reduction in AdoMet synthesis by MATα2 homo-oligomers (0.7 μM) with increasing concentrations of PDRG1", "setting": "[1]", "value": "< 50", "unit": "%"}, {"measurement": "IC50 of PDRG1 (0–5.6 μM) on S-adenosylmethionine synthesis by purified recombinant MATα1 homo-oligomers (0.7 μM)", "setting": "[2]", "value": 3.34, "unit": "µM"}, {"measurement": "reduction in AdoMet synthesis by MATα1 homo-oligomers (0.7 μM) with increasing concentrations of PDRG1 (0–5.6 μM)", "setting": "[2]", "value": "< 50", "unit": "%"}]}]}
